The values below come from FireProtDB (doi:10.1016/j.jmb.2009.11.038).

For the data set the following is noted: Homo sapiens, pH 7.5, Fluorescence, Sodium phosphate 20mM, transition: 2, whole UniProt chain shown.

B1: wild type, Q5NV88 (protein)
chain: NFMLTQPHSVSESPGKTVTISCTRSSGSIASNYVQWYQQRPGSSPTTVIYEDNQRPSGVPDRFSGSIDSSSNSASLTISGLKTEDEADYYCQSYDSSN
B1: under “25 °C, GdnHCl”, the “denaturant midpoint (higher = more stable)” value stood at 1.41 M and the unfolding free energy amounted to 5.1 kcal/mol. Moreover, where the note is “Thermal”, the Tm (as a rule, the temperature at which the thermal transition is half complete) was found to be 49.9 °C; the “unfolding enthalpy (calorimetric)” value is 86.2 kcal/mol; the unfolding free energy came out at 5.2 kcal/mol.
